According to patent CN114002427A (dated 2022):

Biological target: T1, 新型冠状病毒核衣壳蛋白 (SARS-COV-2, UniProt P0DTC9 1-419)
T1 construct: also called SARS-COV-2 nucleocapsid protein; 新型冠状病毒核衣壳蛋白抗原
Assay: ELISA screening of hybridomas for antigen-specific antibodies

B1: mAb#9 (antibody, V domains shown)
VH: EVQLVESGGGLVKPGGSLKLSCAASGITFSDYYMYWVRQTPEKRLEWVATISDGGSYTYYPDSVKGRFTISRDNAKNNLYLQMSSLKSEDTAMYYCVRDKSMGFGAWFAYWGQGTLVTVSA
VL: EIVLTQSPTTMAASPGEKITITCSASSSISSNYLHWYQQRPGFSPKLLIYRTSNLASGVPARFSGSGSGTSYSLTIGTMEAEDVATYYCQQGHSIPYTFGGGTKLEIK
notes: also called 新型冠状病毒核衣壳抗体(mAb#9); 第二新型冠状病毒核衣壳蛋白抗体
B1: binds.
